Source: patent US20100255012A1 (Genmab, published 2010)

Assays:
[1] = target: the molecule itself; assay: gel filtration on Superdex 200 (eluted at about 70 kD); self-association of half-molecules
Description: Samples (100 μl) were applied to a Superdex 200 HR 10/30 column (Amersham Biosciences, Uppsala, Sweden), which was connected to a HPLC system (ÄKTA explorer) from Amersham Biosciences, Uppsala, Sweden. The column was first equilibrated in PBS. Fractions of 250 μl were collected, in which Bet v 1 specific IgG was measured using the antigen binding assay.
To test the antigen binding of the Bet v 1 specific antibodies, a sample of diluted antibody was incubated overnight at room temperature with 0.75 mg Protein-G sepharose (Amersham Biosciences, Uppsala, Sweden) in 750 μl PBS/AT (PBS supplemented with 0.3% BSA, 0.1% Tween-20, 0.05% NaN3) together with 50 μl diluted ¹²⁵I-labelled Bet v 1 or ¹²⁵I-labelled Fel d 1. […] After washing the Sepharose suspension with PBS-T (PBS supplemented with 0.1% Tween-20), the bound radioactivity was measured. The results were expressed as the amount of radioactivity relative to the amount added.

human C1q = target: T1, human C1q (human, UniProt P02745 23-245; P02746 28-253; P02747 29-245); assay: ELISA, antibody coated, bound C1q detected with rabbit anti-human C1q
T1 construct: Bought human C1q; also called first component of the classical complement cascade
Description: In short, microtiter ELISA plates (Greiner, Germany) were coated overnight at RT with the test antibodies serially diluted from 10 μg/ml to 0.06 μg/ml in PBS. Plates were emptied and wells were blocked with 200 μl ELISA-diluent per well (0.1 M NaPO₄, 0.1 M NaCl, 0.1% gelatin and 0.05% Tween-20), at RT for 30 minutes. […] After washing the plates (3×) with PBST, wells were incubated with HRP-conjugated swine anti-rabbit IgG-Fc (DAKO, P0300, lot #069) diluted in ELISA diluent (1:2500, 100 μl/well, RT, 1 hour). Thereafter, plates were washed thrice and assays were developed with freshly prepared 1 mg/ml ABTS solution (ABTS: 2,2′-azino-bis[3-ethylbenzthiazoline-6-sulfonic acid]); 2 tablets of 5 mg in 10 ml ABTS buffer, Boehringer Mannheim, Ingelheim, Germany) at RT in the dark for 30 minutes. Absorbance was measured at 405 nm in an ELISA plate reader (Biotek Instruments Inc., Winooski, USA).

T1 sequence (P02745 23-245 limits assumed, chain 1 of 3): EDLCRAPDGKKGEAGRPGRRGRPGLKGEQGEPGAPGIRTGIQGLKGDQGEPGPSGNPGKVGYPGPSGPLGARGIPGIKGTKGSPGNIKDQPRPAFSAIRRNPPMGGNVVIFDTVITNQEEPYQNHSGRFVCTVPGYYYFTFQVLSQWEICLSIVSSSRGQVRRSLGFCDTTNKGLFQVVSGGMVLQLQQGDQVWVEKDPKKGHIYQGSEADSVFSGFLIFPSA
T1 sequence (P02746 28-253 limits assumed, chain 2 of 3): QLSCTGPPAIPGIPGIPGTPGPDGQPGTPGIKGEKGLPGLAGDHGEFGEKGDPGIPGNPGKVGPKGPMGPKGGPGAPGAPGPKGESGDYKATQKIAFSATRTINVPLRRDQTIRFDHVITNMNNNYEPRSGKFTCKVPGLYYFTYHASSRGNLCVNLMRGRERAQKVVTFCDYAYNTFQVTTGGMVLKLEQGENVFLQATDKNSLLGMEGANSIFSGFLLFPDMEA
T1 sequence (P02747 29-245 limits assumed, chain 3 of 3): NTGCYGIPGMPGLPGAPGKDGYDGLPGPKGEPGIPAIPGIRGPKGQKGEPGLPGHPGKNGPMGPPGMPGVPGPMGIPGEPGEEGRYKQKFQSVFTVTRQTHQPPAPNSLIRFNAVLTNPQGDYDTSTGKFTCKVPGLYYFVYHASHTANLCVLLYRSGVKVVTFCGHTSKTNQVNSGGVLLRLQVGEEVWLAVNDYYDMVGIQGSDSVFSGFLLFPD

Binder	binding result [1]	binding result (human C1q)
Betv1-HG (antibody, V domains shown, Half-molecule of one heavy and one light chain; also called anti-Betv1-HG; hingeless IgG4 anti-Bet v 1) VH: EVQLQQSGAELVKPGASVKLSCTASGFNIKDTYIHWVKQRPEQGLEWVGRIDPATGNTRYDPKFQGKATITADTSSNTAYLQLSSLTSEDTAVYYCASFRPGYALDYWGQGTSVTVSS VL: DIVMTQSHKFMSTSVGDRVSFTCKASQDVFTAVAWYQQKPGQSPKLLIYWASTRRTGVPDRFTGSGSGTDYTLTISSVQAEDLALYYCQQHFSTPPTFGGGTKLEIKR	no binding	
7D8-HG (antibody, Half-molecule of one heavy and one light chain; also called HuMab 7D8-HG; hingeless IgG4 anti-CD20) heavy: EVQLVESGGGLVQPDRSLRLSCAASGFTFHDYAMHWVRQAPGKGLEWVSTISWNSGTIGYADSVKGRFTISRDNAKNSLYLQMNSLRAEDTALYYCAKDIQYGNYYYGMDVWGQGTTVTVSSASTKGPSVFPLAPCSRSTSESTAALGCLVKDYFPEPVTVSWNSGALTSGVHTFPAVLQSSGLYSLSSVVTVPSSSLGTKTYTCNVDHKPSNTKVDKRVAPEFLGGPSVFLFPPKPKDTLMISRTPEVTCVVVDVSQEDPEVQFNWYVDGVEVHNAKTKPREEQFNSTYRVVSVLTVLHQDWLNGKEYKCKVSNKGLPSSIEKTISKAKGQPREPQVYTLPPSQEEMTKNQVSLTCLVKGFYPSDIAVEWESNGQPENNYKTTPPVLDSDGSFFLYSRLTVDKSRWQEGNVFSCSVMHEALHNHYTQKSLSLSLGK light: not shown		no binding
